T1: cynomolgus monkey SIRPα on CHO cells (cynomolgus monkey, UniProt A0A2K5VYQ9 31-507)
T1 construct: whole, on cells; also called Cyno SIRPα CHO
T1 sequence: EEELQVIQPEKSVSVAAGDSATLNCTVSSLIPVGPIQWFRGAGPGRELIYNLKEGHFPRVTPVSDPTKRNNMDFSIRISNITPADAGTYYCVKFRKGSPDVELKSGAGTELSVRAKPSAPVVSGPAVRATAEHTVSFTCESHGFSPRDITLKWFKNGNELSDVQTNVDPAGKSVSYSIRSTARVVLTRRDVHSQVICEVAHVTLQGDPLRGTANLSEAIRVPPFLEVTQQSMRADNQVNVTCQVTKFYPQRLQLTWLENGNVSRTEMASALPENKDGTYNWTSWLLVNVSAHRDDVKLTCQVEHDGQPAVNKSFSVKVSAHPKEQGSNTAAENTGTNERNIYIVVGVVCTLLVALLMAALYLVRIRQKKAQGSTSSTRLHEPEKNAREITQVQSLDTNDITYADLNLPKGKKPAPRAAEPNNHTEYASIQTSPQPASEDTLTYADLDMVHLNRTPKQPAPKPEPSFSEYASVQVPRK

T2: cynomolgus monkey SIRPγ on CHO cells (cynomolgus monkey, UniProt Q9P1W8 29-386 (human entry))
T2 construct: also called Cyno SIRPγ CHO
T2 chain: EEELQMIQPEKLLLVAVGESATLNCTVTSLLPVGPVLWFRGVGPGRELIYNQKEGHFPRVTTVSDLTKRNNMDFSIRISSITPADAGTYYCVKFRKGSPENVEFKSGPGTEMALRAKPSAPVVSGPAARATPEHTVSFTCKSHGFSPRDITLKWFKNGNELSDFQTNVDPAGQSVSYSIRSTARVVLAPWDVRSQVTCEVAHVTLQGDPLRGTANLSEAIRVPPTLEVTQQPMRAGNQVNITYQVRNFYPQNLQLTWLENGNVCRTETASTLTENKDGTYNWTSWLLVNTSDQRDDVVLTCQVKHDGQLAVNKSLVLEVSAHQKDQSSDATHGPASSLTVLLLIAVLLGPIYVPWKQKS

T3: cynomolgus monkey SIRPγ-His monomer protein (cynomolgus monkey, UniProt Q9P1W8 29-359 (human entry), limits assumed)
T3 construct: also called Cyno SIRPγ; Cyno SIRPγ-His
T3 chain: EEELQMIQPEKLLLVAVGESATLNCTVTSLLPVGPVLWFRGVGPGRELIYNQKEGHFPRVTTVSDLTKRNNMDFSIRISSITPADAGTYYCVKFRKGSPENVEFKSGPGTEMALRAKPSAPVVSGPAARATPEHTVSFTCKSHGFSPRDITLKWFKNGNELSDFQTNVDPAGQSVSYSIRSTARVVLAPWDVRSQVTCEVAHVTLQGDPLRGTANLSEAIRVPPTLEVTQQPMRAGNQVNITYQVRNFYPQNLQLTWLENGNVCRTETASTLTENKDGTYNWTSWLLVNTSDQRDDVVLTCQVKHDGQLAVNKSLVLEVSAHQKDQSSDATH


Experiments:
[1] = target: T4, human SIRPγ-His monomer protein (human, UniProt Q9P1W8 29-360); assay: BLI Octet, V5-scFv PPE captured, SIRP-His 500 nM
T4 construct: also called hSIRPγ

[2] = target: T5, human SIRPβ1 on CHO cells (co-transfected with DAP12) (human, UniProt O00241 30-398); assay: flow cytometry
T5 construct: whole, on cells; co-transfected with DAP12; also called Human SIRPβ1 CHO

[3] = target: T1, cynomolgus monkey SIRPα on CHO cells; assay: flow cytometry
[4] = target: T2, cynomolgus monkey SIRPγ on CHO cells; assay: flow cytometry, myc-scFv PPE
Procedure, shortened: (§1)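 Antibodies are titrated onto CHO cells stably expressing the SIRP protein, then detected with fluorescent anti-human IgG. MFI is plotted against concentration. Crude PPE containing myc-tagged scFv is tested against the same lines and parental CHO-K1, with fold change <2.0 taken as non-binding.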

[5] = target: T6, human SIRPγ on stably transfected CHO cells (human, UniProt Q9P1W8 29-387); assay: flow cytometry, myc-scFv PPE
T6 construct: also called Human SIRPγ CHO
Procedure, shortened: as §1

[6] = target: T3, cynomolgus monkey SIRPγ-His monomer …; assay: BLI Octet, captured scFv PPE, cyno SIRP
Description: Unique binders were further tested for binding to human SIRPαV1, human SIRPαV2, and human SIRPβ1. Briefly, biotinylated anti-V5 was immobilized onto streptavidin biosensors. Each V5-tagged SIRPγ scFv antibody as crude PPE was captured by the anti-V5 antibody. SIRP-His monomer protein at 500 nM was exposed to the biosensor for binding to SIRP scFv. The biosensors were then exposed to wash buffer to measure off-rate kinetics. The resulting association and dissociation kinetics (kdis) was analyzed. […] Similarly, cross-reactivity to cynomolgus monkey SIRPγ, cynomolgus monkey SIRPα, and cynomolgus monkey SIRPβ1 were tested.

T4 sequence (Q9P1W8 29-360 limits assumed): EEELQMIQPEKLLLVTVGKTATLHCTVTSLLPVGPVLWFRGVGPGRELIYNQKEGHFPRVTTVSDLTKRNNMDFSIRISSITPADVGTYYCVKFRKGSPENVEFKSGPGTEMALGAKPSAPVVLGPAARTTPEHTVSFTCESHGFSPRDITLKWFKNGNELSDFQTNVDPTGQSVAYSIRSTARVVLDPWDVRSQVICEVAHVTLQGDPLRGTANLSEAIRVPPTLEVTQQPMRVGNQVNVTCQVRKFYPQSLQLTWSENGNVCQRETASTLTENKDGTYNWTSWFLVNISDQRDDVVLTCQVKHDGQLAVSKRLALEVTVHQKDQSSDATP
T6 sequence (Q9P1W8 29-387 limits assumed): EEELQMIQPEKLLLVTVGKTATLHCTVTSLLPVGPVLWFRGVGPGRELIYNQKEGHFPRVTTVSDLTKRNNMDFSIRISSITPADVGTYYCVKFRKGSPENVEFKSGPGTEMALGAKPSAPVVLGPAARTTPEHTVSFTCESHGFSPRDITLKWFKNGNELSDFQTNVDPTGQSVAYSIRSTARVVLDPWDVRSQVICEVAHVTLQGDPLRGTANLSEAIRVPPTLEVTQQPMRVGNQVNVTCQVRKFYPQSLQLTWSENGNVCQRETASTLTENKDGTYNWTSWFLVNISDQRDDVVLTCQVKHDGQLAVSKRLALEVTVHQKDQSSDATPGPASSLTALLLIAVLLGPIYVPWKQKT
T5 sequence (O00241 30-398): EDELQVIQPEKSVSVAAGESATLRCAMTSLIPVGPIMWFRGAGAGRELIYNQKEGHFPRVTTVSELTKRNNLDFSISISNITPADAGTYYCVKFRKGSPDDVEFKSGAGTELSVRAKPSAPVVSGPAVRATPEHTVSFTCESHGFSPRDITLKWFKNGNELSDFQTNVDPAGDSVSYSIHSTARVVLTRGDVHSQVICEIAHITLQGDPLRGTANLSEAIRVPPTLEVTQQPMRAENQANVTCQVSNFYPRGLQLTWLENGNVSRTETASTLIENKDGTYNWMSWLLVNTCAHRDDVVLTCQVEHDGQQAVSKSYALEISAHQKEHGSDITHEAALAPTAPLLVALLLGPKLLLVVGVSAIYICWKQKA

Binder | kdis [1] [s⁻¹] | binding result [2] | binding result [3] | MFI fold change over parental CHO [4] [fold] | MFI fold change over parental CHO [5] [fold] | binding result [6]
Antibody 40 (scFv, V domains shown, scFv in crude PPE, V5/myc-tagged) VH: QVQLVQSGAEVKKPGSSVKVSCKASGGTFSSYAISWVRQAPGQGLEWVGRIHPRDGSTDYAQKFQGRVTITADESTSTAYMELSSLRSEDTAVYYCARVSLRFLEDYGMDVWGQGTTVTVSS VL: not shown | 0.001 to 0.01 | no binding (tested: fold change <2.0) | no binding (tested: fold change <2.0) | 15.3 | 15.4 | binds
Antibody 47 (scFv, V domains shown, scFv in crude PPE, V5/myc-tagged) VH: QVQLVQSGAEVKKPGASVKVSCKASGYTFTTYGISWVRQAPGQGLEWMGWMDPNSGSTGYAQKFQGRVTMTRDTSTSTVYMELSSLRSEDTAVYYCARGRGNSYYYYYMDVWGKGTTVTVSS VL: DIQMTQSPSSLSASVGDRVTITCRASQRIGSYLNWYQQKPGKAPKLLIYGASNLQSGVPSRFSGSGSGTDFTLTISSLQPEDFATYYCQQANSFPFTFGPGTKVDIK | > 0.01 | no binding (tested: fold change <2.0) | no binding (tested: fold change <2.0) | 14.2 | 17.3 | binds
Antibody 43 (scFv, V domains shown, scFv in crude PPE, V5/myc-tagged) VH: QVQLVQSGAEVKKPGASVKVSCKASGGTFTSYDINWVRQAPGQGLEWMGWISAYNGHTNYAQNLQGRVTMTRDTSTSTVYMELSSLRSEDTAVYYCAREDSSWYFDLWGRGTLVTVSS VL: DIQMTQSPSSLSASVGDRVTITCRASQSISSWLAWYQQKPGKAPKLLIYDASNLETGVPSRFSGSGSGTDFTLTISSLQPEDFATYYCQQSFSTPPTFGQGTKVEIK |  | no binding (tested: fold change <2.0) | no binding (tested: fold change <2.0) | 22.7 | 41.2 | binds
Antibody 37 (scFv, V domains shown, scFv in crude PPE, V5/myc-tagged) VH: QVQLVQSGAEVKKPGASVKVSCKASGYTLNNYDINWVRQAPGQGLEWMGWISGYNGNTNYAQKLQGRVTMTRDTSTSTVYMELSSLRSEDTAVYYCARVGSSWEENDQWGQGTLVTVSS VL: DIQMTQSPSSLSASVGDRVTITCRASQSISRWLAWYQQKPGKAPKLLIYAASSLESGVPSRFSGSGSGTDFTLTISSLQPEDFATYYCQQTHSFPLTFGGGTKVEIK | 0.001 to 0.01 | no binding (tested: fold change <2.0) |  | 15.5 | 31.1 | binds
Antibody 17 (scFv, V domains shown, scFv in crude PPE, V5/myc-tagged) VH: QVQLVQSGAEVKKPGASVKVSCKASGYTFTRNYVHWVRQAPGQGLEWMGRINPNSGGTNTAQKFQGRVTMTRDTSTSTVYMELSSLRSEDTAVYYCARLGDVAVAASFDYWGQGTLVTVSS VL: DIQMTQSPSSLSASVGDRVTITCRASQSISSYLNWYQQKPGKAPKLLIYDASSLESGVPSRFSGSGSGTDFTLTISSLQPEDFATYYCQQANSFPLTFGPGTKVDIK |  |  | no binding (tested: fold change <2.0) | 30.1 | 28.3 | binds
Antibody 50 (scFv, V domains shown, scFv in crude PPE, V5/myc-tagged) VH: QVQLVQSGAEVKKPGASVKVSCKASGYTFTGYYMHWVRQAPGQGLEWMGTINPSGGSTSYAQKFQGRVTMTRDTSTSTVYMELSSLRSEDTAVYYCVKGNGYYDLWGQGTLVTVSS VL: DIQMTQSPSSLSASVGDRVTITCRASQSISSWLAWYQQKPGKAPKLLIYDTSNLQGGVPSRFSGSGSGTDFTLTISSLQPEDFATYYCQQYDSFPWTFGQGTKVEIK | > 0.01 | no binding (tested: fold change <2.0) | no binding (tested: fold change <2.0) | 30.8 | 12.8 | binds
Antibody 49 (scFv, V domains shown, scFv in crude PPE, V5/myc-tagged) VH: QVQLVQSGAEVKKPGSSVKVSCKASGGTFSSYAISWVRQAPGQGLEWMGVINPSGGSTSYAQKFQGRVTITADESTSTAYMELSSLRSEDTAVYYCARESRGYYGMDVWGQGTTVTVSS VL: not shown | > 0.01 | no binding (tested: fold change <2.0) | no binding (tested: fold change <2.0) | 18.3 | 18.6 | binds
Antibody 26 (scFv, V domains shown, scFv in crude PPE, V5/myc-tagged) VH: QVQLVQSGAEVKKPGASVKVSCKASGYTFTSYYMHWVRQAPGQGLEWMGRINPNSGGTKYAQKFQGRVTMTRDTSTSTVYMELSSLRSEDTAVYYCARLGSAYFDLWGRGTLVTVSS VL: DIQMTQSPSSLSASVGDRVTITCRASQSVDTWLAWYQQKPGKAPKLLIYEASTLESGVPSRFSGSGSGTDFTLTISSLQPEDFATYYCQQANSFPITFGQGTRLEIK | 0.001 to 0.01 |  | no binding (tested: fold change <2.0) | 40 | 28.4 | binds
Antibody 42 (scFv, V domains shown, scFv in crude PPE, V5/myc-tagged) VH: QVQLVQSGAEVKKPGASVKVSCKASGYTFTSYHMHWVRQAPGQGLEWMGWMNPNSGNTGYAQKFQGRVTMTRDTSTSTVYMELSSLRSEDTAVYYCARGGRVVRGVIKGWFDPWGQGTLVTVSS VL: not shown | > 0.01 | no binding (tested: fold change <2.0) | no binding (tested: fold change <2.0) | 14.5 | 15.9 | binds
Antibody 13 (scFv, V domains shown, scFv in crude PPE, V5/myc-tagged) VH: EVQLLESGGGLVQPGGSLRLSCAASGFTFSNSDMNWVRQAPGKGLEWVSYISSSGNTIYYADSVKGRFTISRDNSKNTLYLQMNSLRAEDTAVYYCARSNWNYPLDYYYMDVWGKGTTVTVSS VL: DIVMTQSPLSLPVTPGEPASISCRSSQSLLHSNGYNYLDWYLQKPGQSPQLLIYAASSLQSGVPDRFSGSGSGTDFTLKISRVEAEDVGVYYCMQGTHWPPTFGQGTKVEIK | 0.001 to 0.01 | no binding (tested: fold change <2.0) | no binding (tested: fold change <2.0) | 5.22 | 7.06 | binds
Antibody 41 (scFv, V domains shown, scFv in crude PPE, V5/myc-tagged) VH: QVQLVQSGAEVKKPGSSVKVSCKASGGTFSNYAISWVRQAPGQGLEWMGGIIPIFGSTASYAQKFQGRVTITADESTSTAYMELSSLRSEDTAVYYCARGVGDDTLTDWGQGTLVTVSS VL: DIVMTQSPLSLPVTPGEPASISCRSSQSLLHSNGYNYLDWYLQKPGQSPQLLIYAASSLQSGVPDRFSGSGSGTDFTLKISRVEAEDVGVYYCMQALQTPLTFGGGTKVEIK | > 0.01 | no binding (tested: fold change <2.0) | no binding (tested: fold change <2.0) | 36.1 | 25.5 | binds
